Reference: PMC4831024 (2016)
Ends that are not written are not given here.

Target: Ku70/Ku80ΔC heterodimer (human, UniProt P12956 1-609; P13010 1-590)
Experiment: FP

Sequence of Ku70/Ku80ΔC heterodimer (P12956 whole entry, stated change not applied, chain 1 of 2): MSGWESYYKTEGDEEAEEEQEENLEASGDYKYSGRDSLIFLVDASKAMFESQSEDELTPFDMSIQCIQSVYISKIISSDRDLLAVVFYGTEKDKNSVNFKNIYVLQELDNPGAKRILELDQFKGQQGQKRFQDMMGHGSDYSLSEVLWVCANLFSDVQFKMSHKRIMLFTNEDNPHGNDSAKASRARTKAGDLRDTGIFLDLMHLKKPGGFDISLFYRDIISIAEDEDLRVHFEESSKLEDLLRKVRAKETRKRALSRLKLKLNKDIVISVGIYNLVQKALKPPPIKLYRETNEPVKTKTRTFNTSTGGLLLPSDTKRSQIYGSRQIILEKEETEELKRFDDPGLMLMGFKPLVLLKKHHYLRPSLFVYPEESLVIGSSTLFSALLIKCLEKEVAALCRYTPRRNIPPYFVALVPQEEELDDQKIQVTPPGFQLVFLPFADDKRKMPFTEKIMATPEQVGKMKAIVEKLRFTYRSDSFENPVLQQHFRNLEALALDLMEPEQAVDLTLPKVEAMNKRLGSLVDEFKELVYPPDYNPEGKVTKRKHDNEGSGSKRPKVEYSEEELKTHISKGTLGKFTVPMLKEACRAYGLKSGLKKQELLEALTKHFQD
Sequence of Ku70/Ku80ΔC heterodimer (P13010 1-590, stated change not applied, chain 2 of 2): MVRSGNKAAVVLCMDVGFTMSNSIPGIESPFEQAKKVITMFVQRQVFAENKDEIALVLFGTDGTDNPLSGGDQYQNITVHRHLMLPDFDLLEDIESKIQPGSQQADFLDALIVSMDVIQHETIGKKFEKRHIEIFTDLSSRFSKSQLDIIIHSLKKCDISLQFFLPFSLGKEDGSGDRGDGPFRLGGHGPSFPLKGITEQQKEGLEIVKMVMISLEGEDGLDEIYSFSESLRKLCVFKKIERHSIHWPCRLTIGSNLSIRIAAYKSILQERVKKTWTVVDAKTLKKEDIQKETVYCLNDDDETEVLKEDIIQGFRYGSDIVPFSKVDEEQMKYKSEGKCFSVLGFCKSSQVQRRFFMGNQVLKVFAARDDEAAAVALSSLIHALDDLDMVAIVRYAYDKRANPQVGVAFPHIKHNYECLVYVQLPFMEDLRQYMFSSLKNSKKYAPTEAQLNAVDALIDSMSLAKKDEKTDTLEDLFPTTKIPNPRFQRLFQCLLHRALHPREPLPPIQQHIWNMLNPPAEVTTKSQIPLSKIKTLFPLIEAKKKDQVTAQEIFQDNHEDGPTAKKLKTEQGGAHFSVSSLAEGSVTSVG

| Binder | Kd [nM] |
| --- | --- |
| Fluorescein-GGYGAQQRKCPEWMNVQN [fluorescein-labelled WRN-nA peptide (N-terminal KBM of WRN)] | 1170 |
| Fluorescein-GGYGSSAERKRRLPVWFAKGSDTSKKLMDKTKRGGLFS [fluorescein-labelled WRN-cAX peptide (C-terminal KBM plus XLF-like motif of WRN)] | 720 |
| Fluorescein-GGYGSSAERKRRLPVWFAKG [fluorescein-labelled WRN-cA peptide (C-terminal KBM of WRN)] | 790 |
